Test results published in patent US5532348 (United States of America, dated 1996).

Assays:
[1] = molecular target: T1, HPV11 E6, wheat germ extract translated (human papillomavirus type 11, UniProt P04019); assay: GST-E6-AP fusion on glutathione-Sepharose, 35S-labelled E6
T1 sequence: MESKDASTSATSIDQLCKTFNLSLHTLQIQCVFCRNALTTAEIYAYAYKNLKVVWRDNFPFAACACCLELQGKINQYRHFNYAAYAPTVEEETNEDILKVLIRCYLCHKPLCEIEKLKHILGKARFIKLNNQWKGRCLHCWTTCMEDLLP

GST (with no fusion) = GST (with no fusion) (Schistosoma japonicum (Blood fluke), UniProt P08515 = GST); assay: GST pull-down of 35S-labelled translate, no p53
GST fusion to HPV 11 E6 = molecular target: T2, GST fusion to HPV 11 E6 (human papillomavirus type 11, UniProt P04019); assay: GST pull-down of 35S-labelled translate, no p53
T2 sequence: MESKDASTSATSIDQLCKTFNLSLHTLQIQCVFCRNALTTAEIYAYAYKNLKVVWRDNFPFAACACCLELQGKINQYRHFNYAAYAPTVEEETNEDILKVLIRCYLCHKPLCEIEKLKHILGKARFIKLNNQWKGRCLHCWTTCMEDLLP

[2] = molecular target: GST-p53 (glutathione S-transferase fusion of wild-type p53) (Homo sapiens (Human), UniProt P04637); assay: GST-p53 pull-down of 35S-labelled E6-AP variant in the presence of HPV16 E6

B1: GST-75 kDa E6-AP fusion protein (amino acids 212-865 of SEQ ID NO:1) (other)
chain: DNNLQKLGPDDVSVDIDAIRRVYTRLLSNEKIETAFLNALVYLSPNVECDLTYHNVYSRDPNYLNLFIIGMENRNLHSPEYLEMALPLFCKAMSKLPLAAQGKLIRLWSKYNADQIRRMMETFQQLITYKVISNEFNSRNLVNDDDAIVAASKCLKMVYYANVVGGEVDTNHNEEDDEEPIPESSELTLQELLGEERRNKKGLRVDPLETELGVKTLDCRKPLIPFEEFINEPLNEVLEMDKDYTFFKVETENKFSFMTCPFILNAVTKNLGLYYDNRIRMYSERRITVLTSLVQGQQLNPYLRLKVRRKHIIDDALVRLEMIAMENPADLKKQLYVEFEGEQGVDEGGVSKEFFQLVVEEIFNPDIGMFTYDESTKLFWFNPSSFETEGQFTLIGIVLGLAIYNNCILDVHGPMVVYRKLMGKKGTFRDLGDSHPVLYQSLKDLLEYVGNVEDDMMITFQISQTNLFQNPMMYDLKENGDKIPITNENRKEFVNLYSDYILNKSVEKQFKAFRRGRHMVTNESPLKYLFRPEEIELLICGSRNLDFQALEETTEYDGGYTRDSVLIREFWEIVHSFTDEQKRLFLQFTTGRDRAPVGGLGKLKMIIAKNGPDTERLPTSHTCFNVLLLPEYSSKEKLKERLLKAITYAKGFGM
binding result [1]: no binding

B2: 95 kd in vitro translated form of E6-AP (amino acids 37 to 865 of SEQ ID NO:1) (other)
chain: EACTNEFCASCPTFLRMDNKAAAIKALELYKINAKLCDPHPSKKGASSAYLENSKGAPNNSCSEIKMNKKGARIDFKDVTYLTEEKVYEILELCREREDYSPLIRVIGRVFSSAEALVQSFRKVKQHTKEELKSLQAKDEDKDEDEKEKAACSAAAMEEDSEEASSSRIGDSSQGDNNLQKLGPDDVSVDIDAIRRVYTRLLSNEKIETAFLNALVYLSPNVECDLTYHNVYSRDPNYLNLFIIGMENRNLHSPEYLEMALPLFCKAMSKLPLAAQGKLIRLWSKYNADQIRRMMETFQQLITYKVISNEFNSRNLVNDDDAIVAASKCLKMVYYANVVGGEVDTNHNEEDDEEPIPESSELTLQELLGEERRNKKGLRVDPLETELGVKTLDCRKPLIPFEEFINEPLNEVLEMDKDYTFFKVETENKFSFMTCPFILNAVTKNLGLYYDNRIRMYSERRITVLTSLVQGQQLNPYLRLKVRRKHIIDDALVRLEMIAMENPADLKKQLYVEFEGEQGVDEGGVSKEFFQLVVEEIFNPDIGMFTYDESTKLFWFNPSSFETEGQFTLIGIVLGLAIYNNCILDVHGPMVVYRKLMGKKGTFRDLGDSHPVLYQSLKDLLEYVGNVEDDMMITFQISQTNLFQNPMMYDLKENGDKIPITNENRKEFVNLYSDYILNKSVEKQFKAFRRGRHMVTNESPLKYLFRPEEIELLICGSRNLDFQALEETTEYDGGYTRDSVLIREFWEIVHSFTDEQKRLFLQFTTGRDRAPVGGLGKLKMIIAKNGPDTERLPTSHTCFNVLLLPEYSSKEKLKERLLKAITYAKGFGM
binding result (GST (with no fusion)): no binding | binding result (GST fusion to HPV 11 E6): no binding

B3: GST-E6-AP fusion protein with amino acids 371 to 440 of SEQ ID NO:1 (SEQ ID NO:2) (other)
chain: ANVVGGEVDTNHNEEDDEEPIPESSELTLQELLGEERRNKKGLRVDPLETELGVKTLDCRKPLIPFEEFI
binding result [1]: no binding

B4: E6-AP N-terminally truncated form beginning at amino acid 322 (other)
chain: YNADQIRRMMETFQQLITYKVISNEFNSRNLVNDDDAIVAASKCLKMVYYANVVGGEVDTNHNEEDDEEPIPESSELTLQELLGEERRNKKGLRVDPLETELGVKTLDCRKPLIPFEEFINEPLNEVLEMDKDYTFFKVETENKFSFMTCPFILNAVTKNLGLYYDNRIRMYSERRITVLTSLVQGQQLNPYLRLKVRRKHIIDDALVRLEMIAMENPADLKKQLYVEFEGEQGVDEGGVSKEFFQLVVEEIFNPDIGMFTYDESTKLFWFNPSSFETEGQFTLIGIVLGLAIYNNCILDVHGPMVVYRKLMGKKGTFRDLGDSHPVLYQSLKDLLEYVGNVEDDMMITFQISQTNLFQNPMMYDLKENGDKIPITNENRKEFVNLYSDYILNKSVEKQFKAFRRGRHMVTNESPLKYLFRPEEIELLICGSRNLDFQALEETTEYDGGYTRDSVLIREFWEIVHSFTDEQKRLFLQFTTGRDRAPVGGLGKLKMIIAKNGPDTERLPTSHTCFNVLLLPEYSSKEKLKERLLKAITYAKGFGM
binding result [2]: no binding
